Results: patent publication US20110217317A1 (published 2011)

T1: Rhesus D antigen (human, UniProt Q02161 2-417)
T1 construct: whole, on cells; Presented on RhD-positive erythrocytes in all assays; also called RhD; RhD antigen
T1 sequence (looked up): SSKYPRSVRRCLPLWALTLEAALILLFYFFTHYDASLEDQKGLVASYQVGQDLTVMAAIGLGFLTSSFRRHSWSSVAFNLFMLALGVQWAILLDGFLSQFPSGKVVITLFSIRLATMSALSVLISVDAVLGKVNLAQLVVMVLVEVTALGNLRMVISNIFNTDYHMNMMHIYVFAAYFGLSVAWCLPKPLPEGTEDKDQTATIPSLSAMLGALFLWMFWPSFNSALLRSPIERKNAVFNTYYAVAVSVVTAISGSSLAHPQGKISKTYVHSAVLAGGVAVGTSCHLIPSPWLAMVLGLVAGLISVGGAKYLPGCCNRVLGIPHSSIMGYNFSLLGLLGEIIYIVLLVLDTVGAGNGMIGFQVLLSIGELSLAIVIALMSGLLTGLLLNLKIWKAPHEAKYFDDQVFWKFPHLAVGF


target: T1, Rhesus D antigen; experiment: Fab screening on red blood cells (agglutination/FACS)

binding result | Binder
binds | RhD162.119G12 (Fab, V domains shown, Tested as Fab (periplasmic extract)) VH: QVQLVESGGGLVKPGGSLRLSCAASGFGFSAYSMNWVRQAPGKGLEWVSSITSTTTYYADSVKGRFSISRDNAKSTLYLRMNSLRAEDTAVYYCVREIAFRGSTYSRWSYYFDFWGQGTLVTVSS VL: DIQLTQSPSSVSASVGDSVTITCRASQAVSGWVAWYQQKPGKAPKLLIFGLSNLEDGVPSRFSGSGSATDFTLTITGLQPEDLATYYCLQANRFPLSFGGGTRVEIKR
binds | RhD163.119A02 (Fab, V domains shown, Tested as Fab (periplasmic extract)) VH: QVQLQESGPGLVKPSETLSLTCTVSGGSISSYYWSWVRQPPGKGLEWIGYIYYSGSTNYNPSLKSRVTIALDTSKNQFSLKLRSVTAADTAVYFCTRDWRQYGSAIRGSRYYYGMDVWGQGTTVTVSS VL: EIVLTQSPGTLSLSPGERATLSCRASQNPRRNFLAWYQQKPGQAPRLLIYAASTRATGIPDRFSGSGSGTDFTLTIDRLEPEDSAVYYCQVYGSSPLYTFGQGTKVEMKR
binds | RhD323.229B07 (Fab, V domains shown, Tested as Fab (periplasmic extract)) VH: QVQLVESGGGVVQPGRSLRLSCAASGFTFSSYGMHWVRQAPGKGLEWVAVIWYDGSNKYYADSVKGRFTISRDNSKNTLYLQMNSLRAEDTAVYYCARDWVTRSSNWYRNYYYYGMDVWGQGTTVTVSS VL: DIQMTQSPSSLSASVGDRVTITCRASQSISSYLNWYQQKPGKAPKLLIYAASTLQSGVPSRFSGSGSGTDFTLTISSLQPEDFATYYCQQYYRTPTWTFGQGTKVEIKR
binds | RhD189.181E07 (Fab, V domains shown, Tested as Fab (periplasmic extract)) VH: QVQLVESGGGVVQPGRSLRLSCAASGFTFSSYGMHWVRQAPGKGLEWVAVIWYDGSNKYYADSVKGRFTISRDNSKNTLYLQMNSLRAEDTAVYYCARDMVTMVRGAYRNYYYYGMDVWGKGTTVTVSS VL: not shown
binds | RhD321.187G08 (Fab, V domains shown, Tested as Fab (periplasmic extract)) VH: EVQLVESGGGLVKPGGSLRLSCAASGFTFRSYSMNWVRQAPGKGLEWVSSIGSSSIYTYSADSVKGRFTISRDNAKNSLYLQMNSLRAEDTAVYYCARGEPLNYDYIWGRSRLTIHWGQGTLVTVSS VL: LNFMLTQPHSVSESPGKTVTISCTRSSGSIASNYMQWYQQRPGSSPTTVIYEDNRRPSGVPDRFSGSIDSSSNSASLTISGLKTEDEADYYCQSYDSNNWVFGGGTKLTVLG
binds | RhD324.231F07 (Fab, V domains shown, Tested as Fab (periplasmic extract)) VH: EVQLVESGGGLVQPGRSLRLSCVASGFTFSSYWMHWVRQVPGKGLVWVSRINVDGKSTSYADSVKGRFTISRDNAKNTLYLQMNSLRAEDTAVYYCARDPRRFLEWARYGMDVWGRGTTVTVSS VL: not shown
